{"source": "patent US20100203046A1", "about": "(Biogen, published 2010)", "key": {"[1]": {"target": "T1, human FcγRIII (CD16), CD16a (F158), on CD16-transfected Jurkat cells (human, UniProt P08637 17-254)", "T1 construct": "whole, on cells", "T1 sequence (P08637 17-254)": "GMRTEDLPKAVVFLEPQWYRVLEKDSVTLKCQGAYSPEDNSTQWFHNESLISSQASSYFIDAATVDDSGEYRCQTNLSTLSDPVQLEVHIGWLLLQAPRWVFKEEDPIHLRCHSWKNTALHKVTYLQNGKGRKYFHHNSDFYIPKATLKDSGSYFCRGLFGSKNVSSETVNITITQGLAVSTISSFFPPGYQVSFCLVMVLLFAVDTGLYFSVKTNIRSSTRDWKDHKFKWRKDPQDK", "assay": "CD16 bridging assay, transient"}, "[2]": {"target": "T2, human C1q (Sigma C0660) (human, UniProt P02745 23-245; P02746 28-253; P02747 29-245)", "T2 construct": "Bought protein; also called complement protein C1q", "T2 sequence (P02745 23-245 limits assumed, chain 1 of 3)": "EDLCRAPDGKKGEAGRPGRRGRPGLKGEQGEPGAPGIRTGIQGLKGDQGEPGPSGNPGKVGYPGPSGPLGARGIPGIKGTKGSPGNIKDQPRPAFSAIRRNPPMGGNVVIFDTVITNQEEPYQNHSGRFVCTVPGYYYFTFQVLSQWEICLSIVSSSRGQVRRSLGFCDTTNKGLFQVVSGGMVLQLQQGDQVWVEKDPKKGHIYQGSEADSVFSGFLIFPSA", "T2 sequence (P02746 28-253 limits assumed, chain 2 of 3)": "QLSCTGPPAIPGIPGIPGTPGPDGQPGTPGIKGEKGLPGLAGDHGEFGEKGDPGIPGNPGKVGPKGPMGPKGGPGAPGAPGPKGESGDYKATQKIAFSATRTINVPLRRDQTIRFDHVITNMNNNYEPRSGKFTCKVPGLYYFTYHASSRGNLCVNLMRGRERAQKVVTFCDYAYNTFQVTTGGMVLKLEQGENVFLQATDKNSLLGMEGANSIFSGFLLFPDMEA", "T2 sequence (P02747 29-245 limits assumed, chain 3 of 3)": "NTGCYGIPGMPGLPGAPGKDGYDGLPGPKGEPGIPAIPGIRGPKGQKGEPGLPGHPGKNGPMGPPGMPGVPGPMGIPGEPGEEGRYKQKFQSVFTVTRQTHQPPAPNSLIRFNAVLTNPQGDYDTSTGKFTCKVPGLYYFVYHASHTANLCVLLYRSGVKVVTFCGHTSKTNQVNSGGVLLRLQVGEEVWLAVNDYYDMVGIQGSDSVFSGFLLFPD", "assay": "C1q ELISA on CD2, purified"}, "[3]": {"target": "T2, human C1q (Sigma C0660)", "assay": "C1q ELISA on CD2, transient"}, "[4]": {"target": "T1, human FcγRIII (CD16), CD16a (F158), on …", "assay": "CD16 bridging assay, purified"}, "[5]": {"target": "T1, human FcγRIII (CD16), CD16a (F158), on …", "assay": "summary of Table 5 assays"}}, "data": [{"binder": "chCB6-huIgG1 Y296A (antibody, name in EU numbering, copies: 2 + 2) heavy: not shown light: QIVLTQSPAIMSASPGEKVTMTCRASSSVSHMHWYQQKSGTSPKRWIYDTSKLASGVPARFSGSGSGTSYSLTISSVEAEDAATYYCQQWSSNPLTFGAGTKLELKRTVAAPSVFIFPPSDEQLKSGTASVVCLLNNFYPREAKVQWKVDNALQSGNSQESVTEQDSKDSTYSLSSTLTLSKADYEKHKVYACEVTHQGLSSPVTKSFNRGEC", "values": [{"measurement": "fold decrease in binding vs WT", "setting": "[1]", "value": 13, "unit": "fold"}, {"measurement": "fold decrease in binding vs WT", "setting": "[2]", "value": 3, "unit": "fold"}, {"measurement": "fold decrease in binding vs WT", "setting": "[3]", "value": 5, "unit": "fold"}, {"measurement": "fold decrease in binding vs WT", "setting": "[4]", "value": 5, "unit": "fold"}, {"measurement": "fold decrease in binding vs WT", "setting": "[5]", "value": "> 10", "unit": "fold"}]}]}
